Read-outs that look alike come from different tables or passages of the source.
Tests used:
[1] = biological target: T1, human CTLA-4 expressed on CHO cells (UniProt P16410 37-223); experiment: FACS cell binding
CTLA-4-His protein [2] = biological target: T2, CTLA-4-His protein (UniProt P16410 37-161); experiment: SPR
[3] = biological target: T3, biotin-labeled hCTLA-4/Fc protein (UniProt P16410 37-161, biotin label in the FACS competition assays (sites not given)); experiment: FACS ligand competition
T3 sequence (P16410 37-161): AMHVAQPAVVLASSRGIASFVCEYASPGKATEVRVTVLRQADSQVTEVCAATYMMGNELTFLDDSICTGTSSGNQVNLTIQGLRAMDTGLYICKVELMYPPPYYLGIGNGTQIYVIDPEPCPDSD

[4] = biological target: T3, biotin-labeled hCTLA-4/Fc protein; experiment: FACS ligand competition (B7-1 cells)
CTLA-4/Fc = experiment: SPR
[5] = biological target: T1, human CTLA-4 expressed on CHO cells; experiment: FACS cell binding; remark: listed apart in the source
CTLA-4-His protein [6] = biological target: T2, CTLA-4-His protein; experiment: SPR; remark: listed apart in the source
[7] = biological target: hPD-1-Fc fusion protein having a biotin label (human, UniProt Q15116 25-167, biotin label (sites not given)); experiment: FACS ligand competition
Chain of hPD-1-Fc fusion protein having a biotin label (Q15116 25-167): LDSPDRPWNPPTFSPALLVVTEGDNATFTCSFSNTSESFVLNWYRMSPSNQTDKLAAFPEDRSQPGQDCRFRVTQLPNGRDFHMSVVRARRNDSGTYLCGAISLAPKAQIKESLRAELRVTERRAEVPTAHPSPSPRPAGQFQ

[8] = biological target: T3, biotin-labeled hCTLA-4/Fc protein; experiment: FACS ligand competition; remark: listed apart in the source
[9] = biological target: T4, human PD-1 expressed on CHO cells (human, UniProt Q15116 25-288); experiment: FACS cell binding
T4 sequence (Q15116 25-288): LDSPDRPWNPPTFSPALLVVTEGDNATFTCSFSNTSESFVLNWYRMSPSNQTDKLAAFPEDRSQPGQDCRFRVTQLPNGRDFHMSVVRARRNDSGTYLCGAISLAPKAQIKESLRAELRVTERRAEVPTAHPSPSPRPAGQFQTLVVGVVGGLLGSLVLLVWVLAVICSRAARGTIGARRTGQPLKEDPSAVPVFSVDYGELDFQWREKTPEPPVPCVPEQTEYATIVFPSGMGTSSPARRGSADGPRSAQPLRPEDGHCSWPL

PD-1-His protein [10] = biological target: T5, PD-1-His protein (UniProt Q15116 25-167); experiment: SPR
T5 sequence (Q15116 25-167): as the sequence (Q15116 25-167) above

[11] = biological target: T4, human PD-1 expressed on CHO cells; experiment: FACS ligand competition (hPD-L1 Fc)
CTLA-4-His protein [12] = biological target: T2, CTLA-4-His protein; experiment: SPR; remark: listed apart in the source
PD-1-His protein [13] = biological target: T5, PD-1-His protein; experiment: SPR; remark: listed apart in the source
[14] = biological target: T3, biotin-labeled hCTLA-4/Fc protein; experiment: FACS ligand competition (B7-1 cells); remark: listed apart in the source

T2 sequence (P16410 37-161): as the sequence (P16410 37-161) above
T1 sequence (P16410 37-223): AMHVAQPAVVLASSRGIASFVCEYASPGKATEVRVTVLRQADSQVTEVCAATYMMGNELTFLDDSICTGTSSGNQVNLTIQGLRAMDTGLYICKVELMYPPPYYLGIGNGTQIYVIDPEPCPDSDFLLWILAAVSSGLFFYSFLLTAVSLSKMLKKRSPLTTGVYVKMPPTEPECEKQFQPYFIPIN

IC50 [3]	EC50 [5]	Kd (CTLA-4-His protein [6])	IC50 [7]	IC50 [8]	EC50 [9]	Kd (PD-1-His protein [10])	Binder	further results
12.3 nM							AS07014 HCAb (Fc fusion) heavy: QVHLVESGGGSVQAGGSLRLSCAASGYTYSRHCLGWFRQTPGKEREAVATIDSDGSTSYADSVKGRFTISSDNAKNTLYLQMNSLKPEDTAMYYCAIGPNPRYCSGAPNTRGAEHYFGYWAQGTQVTVSS	EC50 [1]: 15.3 nM; Kd (CTLA-4-His protein [2]): 1.1 nM
6.6 nM							A36566 HCAb (Fc fusion) heavy: EVQLVESGGGLVQVGDSLRLSCAASGRSFENYAIGWFRQAPGKEREFVATISWIPRTAYSTTYYADSVKGRFTISGDNSKNTVYLQMTSLKPEDTAVYYCAAGGATGPLALDSHYGYWGQGTQVTVSS	IC50 [4]: 6.6 nM
14.1 nM							A36922 HCAb (Fc fusion) heavy: QVQLVESGGGLVQAGGSLRLSCAASGRLSRTFTMGWYRQAPGKQRDLVASITTSGSTNYADSVKGRFTISRDNAKNTVILQMNSLVPEDTAVYYCRFLSASTAAWGQGTQVTIST	IC50 [4]: 14.1 nM
							AS02640 sdAb (VHH) VHH: QVQLVESGGGVVQPGRSLRLSCAASGRTITTITMGWFRQAPGKGLEFVASHSWTDNNPYYADSVKGRFIISRDNSKNRLYLQMNSLRAEDTAVYYCAATARRSFVGRQWYTEARQYDYWGQGTLVTVSS	Kd (CTLA-4/Fc): 2.95 nM
							A34311 sdAb (VHH) VHH: QVKLEESGGGLVLPGESLRLSCEASGRTITTITMGWFRQAPGKERQFVASHSWTDNNPYYADSVKGRFIISRDNAGNRVYLQMHSLEPEDTAVYYCAATARRSFVGRQWYTEARQYDYWGQGTQVTVSS	Kd (CTLA-4/Fc): 4.96 nM
	2.7 nM	6.6 nM	4.8 nM	7.1 nM	1.7 nM	8.1 nM	BCP-78 (A34311VH11-mutated hIgG1 hinge-Opdivo) (bispecific antibody) heavy: EVQLVESGGGVVQPGRSLRLSCAASGRTITTITMGWFRQAPGKGREFVASHSWTDNNPYYADSVKGRFTISRDNAKNTLYLQMNSLRPEDTAVYYCAATARRSFVGRQWYTEARQYDYWGQGTLVTVSSEPKSSDKTHTSPPSPQVQLVESGGGVVQPGRSLRLDCKASGITFSNSGMHWVRQAPGKGLEWVAVIWYDGSKRYYADSVKGRFTISRDNSKNTLFLQMNSLRAEDTAVYYCATNDDYWGQGTLVTVSSASTKGPSVFPLAPCSRSTSESTAALGCLVKDYFPEPVTVSWNSGALTSGVHTFPAVLQSSGLYSLSSVVTVPSSSLGTKTYTCNVDHKPSNTKVDKRVESKYGPPCPPCPAPEFLGGPSVFLFPPKPKDTLMISRTPEVTCVVVDVSQEDPEVQFNWYVDGVEVHNAKTKPREEQFNSTYRVVSVLTVLHQDWLNGKEYKCKVSNKGLPSSIEKTISKAKGQPREPQVYTLPPSQEEMTKNQVSLTCLVKGFYPSDIAVEWESNGQPENNYKTTPPVLDSDGSFFLYSRLVDKSRWQEGNVFSCSVMHEALHNHYTQKSLSLSLGK light: not shown	
		28 nM					BCP-2 (BCP-K311) (Keytruda-9GS-A34311) (bispecific antibody) heavy: not shown light: EIVLTQSPATLSLSPGERATLSCRASKGVSTSGYSYLHWYQQKPGQAPRLLIYLASYLESGVPARFSGSGSGTDFTLTISSLEPEDFAVYYCQHSRDLPLTFGGGTKVEIKRTVAAPSVFIFPPSDEQLKSGTASVVCLLNNFYPREAKVQWKVDNALQSGNSQESVTEQDSKDSTYSLSSTLTLSKADYEKHKVYACEVTHQGLSSPVTKSFNRGEC	IC50 [11]: 16.5 nM; Kd (CTLA-4-His protein [12]): 28.4 nM; Kd (PD-1-His protein [13]): 7.63 nM
	3 nM	4 nM	1.5 nM	11.7 nM	1.6 nM	2.2 nM	BCP-75 (AS07189TKDVH11-mutated hIgG1 hinge-Keytruda) (bispecific antibody) heavy: not shown light: EIVLTQSPATLSLSPGERATLSCRASKGVSTSGYSYLHWYQQKPGQAPRLLIYLASYLESGVPARFSGSGSGTDFTLTISSLEPEDFAVYYCQHSRDLPLTFGGGTKVEIKRTVAAPSVFIFPPSDEQLKSGTASVVCLLNNFYPREAKVQWKVDNALQSGNSQESVTEQDSKDSTYSLSSTLTLSKADYEKHKVYACEVTHQGLSSPVTKSFNRGEC	
	3.9 nM	2.6 nM	2.6 nM	17.2 nM	1.6 nM	2.5 nM	BCP-74 (AS07014VH11-mutated hIgG1 hinge-Keytruda) (bispecific antibody) heavy: not shown light: EIVLTQSPATLSLSPGERATLSCRASKGVSTSGYSYLHWYQQKPGQAPRLLIYLASYLESGVPARFSGSGSGTDFTLTISSLEPEDFAVYYCQHSRDLPLTFGGGTKVEIKRTVAAPSVFIFPPSDEQLKSGTASVVCLLNNFYPREAKVQWKVDNALQSGNSQESVTEQDSKDSTYSLSSTLTLSKADYEKHKVYACEVTHQGLSSPVTKSFNRGEC	
	3 nM	7.5 nM	1.1 nM	11.5 nM	2.2 nM	7.5 nM	BCP-73 (A34311VH11-mutated hIgG1 hinge-Keytruda) (bispecific antibody) heavy: not shown light: EIVLTQSPATLSLSPGERATLSCRASKGVSTSGYSYLHWYQQKPGQAPRLLIYLASYLESGVPARFSGSGSGTDFTLTISSLEPEDFAVYYCQHSRDLPLTFGGGTKVEIKRTVAAPSVFIFPPSDEQLKSGTASVVCLLNNFYPREAKVQWKVDNALQSGNSQESVTEQDSKDSTYSLSSTLTLSKADYEKHKVYACEVTHQGLSSPVTKSFNRGEC	
		13 nM					BCP-311K (A34311-9GS-Keytruda) (bispecific antibody) heavy: not shown light: EIVLTQSPATLSLSPGERATLSCRASKGVSTSGYSYLHWYQQKPGQAPRLLIYLASYLESGVPARFSGSGSGTDFTLTISSLEPEDFAVYYCQHSRDLPLTFGGGTKVEIKRTVAAPSVFIFPPSDEQLKSGTASVVCLLNNFYPREAKVQWKVDNALQSGNSQESVTEQDSKDSTYSLSSTLTLSKADYEKHKVYACEVTHQGLSSPVTKSFNRGEC	EC50 [14]: 41.9 nM; IC50 [11]: 33.7 nM; Kd (CTLA-4-His protein [12]): 13 nM; Kd (PD-1-His protein [13]): 11.1 nM
11.9 nM							AS07189 HCAb (Fc fusion) heavy: QVQLVESGGGSVQAGGSLRLSCAASGDSPSVNYMGWFRRAPEKQREQREEVASIYPTGGTFYTDSVKGRFTISRDNAKNTLYLQMTALKPEDTAMYYCAAGKWGTDYWGQGTQVIVSS	EC50 [1]: 6.8 nM; Kd (CTLA-4-His protein [2]): 3 nM
